Measured values as given in patent US20260097122A1 (AUTOLUS, published 2026).

Biological target: T1, recombinant soluble CD22 ectodomain (human, UniProt P20273 20-687)
T1 construct: extracellular domain; Staining reagent used to detect the 9A8 CAR on T cells; also called soluble recombinant CD22 ectodomain
T1 sequence (looked up): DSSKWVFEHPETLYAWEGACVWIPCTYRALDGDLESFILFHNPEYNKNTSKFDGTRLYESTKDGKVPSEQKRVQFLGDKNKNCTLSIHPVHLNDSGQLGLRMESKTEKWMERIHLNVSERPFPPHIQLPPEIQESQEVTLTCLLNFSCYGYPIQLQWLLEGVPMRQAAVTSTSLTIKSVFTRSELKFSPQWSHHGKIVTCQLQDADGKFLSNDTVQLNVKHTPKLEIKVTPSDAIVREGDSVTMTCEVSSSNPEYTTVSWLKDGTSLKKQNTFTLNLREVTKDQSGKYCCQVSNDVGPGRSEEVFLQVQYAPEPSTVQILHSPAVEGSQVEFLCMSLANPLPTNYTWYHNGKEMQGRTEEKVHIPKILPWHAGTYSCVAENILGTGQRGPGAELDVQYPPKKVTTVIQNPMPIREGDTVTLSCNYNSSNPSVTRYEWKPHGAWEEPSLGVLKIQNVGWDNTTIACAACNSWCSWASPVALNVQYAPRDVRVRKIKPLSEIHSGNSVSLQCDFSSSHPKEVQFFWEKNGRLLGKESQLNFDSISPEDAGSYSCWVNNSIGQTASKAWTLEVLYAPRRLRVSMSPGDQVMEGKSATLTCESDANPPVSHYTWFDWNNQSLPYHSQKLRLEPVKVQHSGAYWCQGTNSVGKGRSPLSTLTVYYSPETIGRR
Assay: flow cytometry of CD19 CATCAR T cells stained with anti-idiotype and soluble recombinant CD22 ectodomain [cont.) F]
Excerpt: FIG. 4. AUTO1/22 CAR T cells enhanced activity in vivo. A) Schedule of the in vivo model. B) and C) NSG mice were intravenously injected with 1×10⁶ Nalm-6 WT (B) or Nalm-6 CD19KO (neg) cells (C), and treated with non-transduced (NT), AUTO1 or AUTO1/22 normal donor T cells. Serial bioluminescence imaging was taken. All cells expressed HA-tagged firefly Luciferase. D) and E) Spider plot showing bioluminescence flux for each mouse over time; Nalm-6 WT (D) or Nalm-6 CD19KO (neg) cells (E). F) In vivo expansion of the different CAR T cell populations. Differential engraftment of different CAR T cell populations. The proportion of the different subpopulation of CAR T cells was determined by staining for AUTO1 with anti-idiotype and 9A8CAR with soluble recombinant CD22 ectodomain. […]
Next, the function of CD19 CAR T cells (AUTO1) and CD19/22 co-transduced CAR T cells (AUTO1/22) in vivo was determined. […] NALM6 cells were first engrafted in NSG mice by tail-vein injection, and their engraftment determined by bioluminescence imaging (BLI). […] NALM6 burden was measured sequentially using BLI. […] NALM6 burden and CAR T-cell engraftment was determined by flow cytometry.
Finally, the proportion of AUTO1, CD22CAR and AUTO1/22 CAR T cells engrafted in mice at sacrifice was determined by flow-cytometry of marrow aspirate.

B1: CD19 CATCAR (second-generation CD19 CAR, aCD19cat-CD8STK-41BBZ) (other)
chain: QVQLQQSGPELVKPGASVKISCKASGYAFSSSWMNWVKQRPGKGLEWIGRIYPGDEDTNYSGKFKDKATLTADKSSTTAYMQLSSLTSEDSAVYFCARSLLYGDYLDYWGQGTTLTVSSGGGGSGGGGSGGGGSQIVLTQSPAIMSASPGEKVTMTCSASSSVSYMHWYQQKSGTSPKRWIYDTSKLASGVPDRFSGSGSGTSYFLTINNMEAEDAATYYCQQWNINPLTFGAGTKLELKRSDPTTTPAPRPPTPAPTIASQPLSLRPEACRPAAGGAVHTRGLDFACDIYIWAPLAGTCGVLLLSLVITLYCKRGRKKLLYIFKQPFMRPVQTTQEEDGCSCRFPEEEEGGCELRVKFSRSADAPAYQQGQNQLYNELNLGRREEYDVLDKRRGRDPEMGGKPRRKNPQEGLYNELQKDKMAEAYSEIGMKGERRRGKGHDGLYQGLSTATKDTYDALHMQALPPR
notes: Chimeric antigen receptor expressed on the surface of transduced T cells: CAT19 scFv, CD8 stalk spacer and transmembrane domain, 4-1BB-CD3 zeta endodomain; also called CAT19CAR; CATi9CAR
Does B1 bind?
Result: no binding
